Reference: the nanobody polyreactivity screen of Harvey et al. (2022)

assay: yeast display, Sf9 membrane polyspecificity reagent, FACS + sequencing; frameworks hold sequencing errors
Outline: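 Galactose induction of a Saccharomyces cerevisiae BJ5465 synthetic nanobody display library ran 36–48 hours. The cells were then stained for 1 hour at 4 °C with 10% biotinylated, detergent-solubilized Sf9 membrane reagent, pulled down on streptavidin microbeads and FACS-sorted into low and high (top ~1%) gates on expression and reagent-binding fluorescence. Labels for polyreactivity follow the gate of origin.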

Sequence	polyreactivity (PSR sort gate)
QVQLVESGGGLVQAGGSLRLSCAASGLTFPPYAMGWYRQAPGKERELVATISFSTGNTYYADSVKGRFTISRDNAKNTVYLQLNSLKPEDTADYYCNKVFVLPYKFVAWFDSWGQGTQVTVSS	low polyreactivity
QVQLVESGGGLVQAGGSLRLSCAASGLTFPSNAMGWYRQAPGKERELVAAISKRGGRTFYADSVKGRFTISRDNAKNTVYLQMNSLKPEDTAVYYCATPYAYPGTVQYAGYNYWGQGTQVTVSS	high polyreactivity
QVQLVESGGGLVQAGGSLRLSCAASGLTFPYYAMGWYRQAPGKERELVAAISSSGGSTYYADSVKGRFTISRDNAKNTVYLQMNSLKPEDTAVYYCAAQRYINYDYWGQGTQVTVSS	high polyreactivity
QVQLVESGGGLVQAGGSLRLSCAASGLTFPYYVMGWYIQAPGKERELVAAIDDGGGSTYYADSVKGRFTISRDNAKNTVYLQMNSLKPEDTAVYYCAAQVDYLAHYGYWGQGTQVTVSS	low polyreactivity
QVQLVESGGGLVQAGGSLRLSCAASGLTFQLYTMGWYRQAPGKERELVAAISRSGTRTYYADSVKGRFTISRDNAKNTVYLQMNSLKPEDTAVYYCAARTDGYRNNYWGQGTQVTVSS	high polyreactivity
QVQLVESGGGLVQAGGSLRLSCAASGLTFQVNDMGWYRQAPGKERELVAGITFSGGSTYYPDSVKWRITISRDNAKTTVYLQMNSLKPEDTAVYYCADDTIIGYLYHNVVPTFDYWGQGTQVTVSS	low polyreactivity
QVQLVESGGGLVQAGGSLRLSCAASGLTFQWNAMGWYRQATGKERELVAVITDIGDSTYYADSVKGRFTISRDNAKNTVYLQMNSLKPEDTAVYYCAADFGTISIDVYSWMDYWGQGTQVTVSS	low polyreactivity
QVQLVESGGGLVQAGGSLRLSCAASGLTFQYNTMGWYRQAPGKERELVARINWGGDSTYYADSVKGRFTISRDNAKNTVYLQMNSLTPEDTAVYYCAAPGYSGRYGYYTYYLYDYWGQGTQVTVSS	low polyreactivity
QVQLVESGGGLVQAGGSLRLSCAASGLTFQYYAMGWYRQAPGKERELVATISGRAGRTYYADSVKGRFTISRDNAKNTVYLQMNSLKPEDTAVYYCAAEVDYSLYTWYEYYYWGQGTQVTVSS	high polyreactivity
QVQLVESGGGLVQAGGSLRLSCAASGLTFRANDMGWYRQAPGKERELVAGITESGDSTYYADSVKGRFTISRDNAKNTVYLQMNSLKPEDTAVYYCAAGSYYWYWYRVGEWYAYEYWGQGTQVTVSS	low polyreactivity
QVQLVESGGGLVQAGGSLRLSCAASGLTFRAYVMGWYRQAPWKERELVAAISVSGGSTYYADSVKGRFTISRDNAKNKVYLQLNSLKPEDTAVYYFAAAYSSSKSSGNYYYWGLGTQVTVSS	high polyreactivity
QVQLVESGGGLVQAGGSLRLSCAASGLTFRFYTMGWYRQAPGKERELVAAISTSGGSTYYADSVKGRFTISRDNAKNTVYLQMNSLKPEDTAVYYCNAQVWFYYFQSGYDYWGQGTQVTVSS	low polyreactivity
QVQLVESGGGLVQAGGSLRLSCAASGLTFRIYAMGWYRQAPGKERELVAAISWNGGSTYYADSVKGRFTISRDNAMNTVYLQMNSLKPEDTAVYYFNADPSDRRYPHTWTKMGYWGQGTQVTVSS	low polyreactivity
QVQLVESGGGLVQAGGSLRLSCAASGLTFRKYAMGWYRQAPGKERELVAAITRGGSTNYADSVKGRFTISRDNAKNTVYLQMNSLKPEDTAVYYCAAQYTYRFPYPGYATTHDYWGQGTQVTVSS	high polyreactivity
QVQLVESGGGLVQAGGSLRLSCAASGLTFRKYAMGWYRQAPGKERELVAGISSGGSTYYADSVKGRFTISRDNAKNTVYLQMNSLKPEDTAVYYCAAKALRTMYYWGQGTQVTVSS	high polyreactivity
QVQLVESGGGLVQAGGSLRLSCAASGLTFRKYVMGWYRQAPGKERELVAAISGGGGSTYYADSVKGRFTISRDNAKNTVYLQMNSLKPEDTAVYYCAAVIYRGYYYWGQGTQVTVSS	high polyreactivity

Sequence	polyreactivity (PSR sort gate)
QVQLVESGGGLVQAGGSLRLSCAASGLTFRNYAMGLYRQAPGKERELDAAISRSGGSTYYADSVKGRFTISRDYAKNTVYLHMNSLKPEDTAVYYCATRTYRESTYDYWGQGTQVTVSS	high polyreactivity
QVQLVESGGGLVQAGGSLRLSCAASGLTFRNYAMGWYRQAPGKEREVVADISWSGGSTYYADSVKGRFTISRDNAKITVYLQMNSLKPEDTAVYYCAARFHYPGGPRYYYWGQGTQVTVSS	high polyreactivity
QVQLVESGGGLVQAGGSLRLSCAASGLTFRRYDMGWNRQAPGKEREFVAAITWSTGSTYYADSVKGRFTISRDNAKNTDYLPMNSLKPEDTAVYYCAARSGYFYRYYKYDYWGQGTQVTVSS	high polyreactivity
QVQLVESGGGLVQAGGSLRLSCAASGLTFRVYAMGWYRQAPGKERELVAAITGGGRTYYADSVKGRFTISRDNAKNTVYLQMNSLKPEDTAVYYCAAAGYYVWGQGTQVTVSS	high polyreactivity
QVQLVESGGGLVQAGGSLRLSCAASGLTFRWYAMGWYRQAPGKERELVAAISSGGSTNYADSVKGRFTISRDNAKNTVYLQMNSLKPEDTAVDYCNAKGRPWFKYDYWGQGTQVTVSS	high polyreactivity
QVQLVESGGGLVQAGGSLRLSCAASGLTFRYYAMGWYRQAPGKERELVAAISSRGASTYYADSVKGRFTISRDNAKNTVYLQMNSLKPEDTAVYYCAVRTYVYHWSFSSLPYDYWGEGTQVTVSS	high polyreactivity
QVQLVESGGGLVQAGGSLRLSCAASGLTFRYYAMGWYRQEPGKERELVATITRAGRTNYADSVKGRFTISRDNAKNTVYLQMNSLKPEDTAVYYCNAKQSGKYPRVVGYDYWGQGTQVTVSS	high polyreactivity
QVQLVESGGGLVQAGGSLRLSCAASGLTFRYYAMVWYRQAPGKERELVATITRAGRTNYADSVKGRFTISRDNAKNTVYLQMNSLKPEDTAVYYCATKRVLTGFDSWGQGTQVTVSS	high polyreactivity
QVQLVESGGGLVQAGGSLRLSCAASGLTFRYYTMGWYRQAPVKERELVAAISRGGSTTYADSVKGRFTISRVNAKNTVYLQMNSLKPEDTAVYYCAVRPGTWSNYYAGGKKYDYWGLGTQVTVSS	high polyreactivity
QVQLVESGGGLVQAGGSLRLSCAASGLTFSAYAMGWYRQAPGKERELVAAITSSGGSTYADSVKGRFTISRDNAKNTVYLQMNSLKPEDTAVYYCAARVVRYGYKYYYWGQGTQVTVSS	low polyreactivity
QVQLVESGGGLVQAGGSLRLSCAASGLTFSENAMGWYRQAPGKERELVAAISWSGTTTYYADSVKGRFTISRDNAKNTVYLQMNSLKPEDTAVYYCAADTIFYGYWGQGTQVTVSS	low polyreactivity
QVQLVESGGGLVQAGGSLRLSCAASGLTFSHYAMGWYRQAPGKERELVAGISSRGGNTYYADSVKGRFTISRDYAKNTVYLQMNSLKPEDTAVFYCNAPKPKRAYDYWGQGSQVTVSS	high polyreactivity
QVQLVESGGGLVQAGGSLRLSCAASGLTFSKNARGWYRQSPGKDRELVATISYSSSRTNYADSVKGRFTISRVNAKNPVYLQMNSLKPEDTAVYYCAARVYNGWPTHYDYWGQGTQVTVSS	high polyreactivity
QVQLVESGGGLVQAGGSLRLSCAASGLTFSKYVMGWYRQAPGKERELVAGISRSSGSTYYADSVKGRFTISRDNAKNTVYLQMNSLKPEDTAVYYCAARARRKYDYWGQGTQVTVSS	high polyreactivity
QVQLVESGGGLVQAGGSLRLSCAASGLTFSPYAKGWYRQAPGKERELVASITNGGRTYYADSVKGRFTISRDNAKNTVYLQMNSLKPEDTAVYYCNAAYFGWFNTYNYWGQGTQVTVSS	high polyreactivity
